According to the supplement of paper PMC12855868:

B1: library; numbered along this chain (parent)
chain: MAAAGGARLLRAASAVLGGPAGRWLHHAGSRAGSSGLLRNRGPGGSAEASRSLSVSARARSSSEDKITVHFINRDGETLTTKGKVGDSLLDVVVENNLDIDGFGACEGTLACSTCHLIFEDHIYEKLDAITDEENDMLDLAYGLTDRSRLGCQICLTKSMDNMTVRVPETVADARQSIDVGKTS

Variants of: B1
Assay: scaled log2 fold change in cell abundance, elesclomol vs control (0 = silent mean, 1 = nonsense mean) (scaled log2 ratio); higher = higher viability under elesclomol (loss of FDX1 cuproptosis function)
Settings: glucose 10 mM
Description: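 Deep mutational scan of full-length human FDX1: a pooled saturation-mutagenesis ORF library (every residue 2-184 mutated to all 19 amino acids plus stop, and silent codons where available) was expressed by lentivirus in FDX1-knockout ABC1 (14 days) or HEK293T (11 days) cells grown with elesclomol (ES) or DMSO control. Variant abundance came from ORF sequencing. The log2 fold change (ES vs control, mean of duplicates) was centred on the silent-variant mean (0) and scaled to the nonsense-variant mean (1). Higher values mean greater viability under ES, i.e. loss of FDX1 function in cuproptosis.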

[1] = with ABC1 FDX1 KO, elesclomol 5 nM, 14 days
[2] = with HEK293T FDX1 KO, elesclomol 40 nM, 11 days
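Note: variant abundance is its share of total variant reads in each endpoint sample, from next-generation sequencing of the integrated ORF PCR-amplified out of genomic DNA.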

| Variant | scaled log2 fold change [1] | scaled log2 fold change [2] |
| --- | --- | --- |
| MAAAGGARLLRAASAVLGGPAGRWLHHAGSRAGSSYLLRNRGPGGSAEASRSLSVSARARSSSEDKITVHFINRDGETLTTKGKVGDSLLDVVVENNLDIDGFGACEGTLACSTCHLIFEDHIYEKLDAITDEENDMLDLAYGLTDRSRLGCQICLTKSMDNMTVRVPETVADARQSIDVGKTS [G36Y] | 0.0493 | -0.0699 |
| MAAAGGARLLRAASAVLGGPAGRWLHHAGSRAGSSGCLRNRGPGGSAEASRSLSVSARARSSSEDKITVHFINRDGETLTTKGKVGDSLLDVVVENNLDIDGFGACEGTLACSTCHLIFEDHIYEKLDAITDEENDMLDLAYGLTDRSRLGCQICLTKSMDNMTVRVPETVADARQSIDVGKTS [L37C] | -0.0306 | – |
| MAAAGGARLLRAASAVLGGPAGRWLHHAGSRAGSSGDLRNRGPGGSAEASRSLSVSARARSSSEDKITVHFINRDGETLTTKGKVGDSLLDVVVENNLDIDGFGACEGTLACSTCHLIFEDHIYEKLDAITDEENDMLDLAYGLTDRSRLGCQICLTKSMDNMTVRVPETVADARQSIDVGKTS [L37D] | -0.0765 | -0.369 |
| MAAAGGARLLRAASAVLGGPAGRWLHHAGSRAGSSGELRNRGPGGSAEASRSLSVSARARSSSEDKITVHFINRDGETLTTKGKVGDSLLDVVVENNLDIDGFGACEGTLACSTCHLIFEDHIYEKLDAITDEENDMLDLAYGLTDRSRLGCQICLTKSMDNMTVRVPETVADARQSIDVGKTS [L37E] | -0.0101 | -0.121 |
| MAAAGGARLLRAASAVLGGPAGRWLHHAGSRAGSSGFLRNRGPGGSAEASRSLSVSARARSSSEDKITVHFINRDGETLTTKGKVGDSLLDVVVENNLDIDGFGACEGTLACSTCHLIFEDHIYEKLDAITDEENDMLDLAYGLTDRSRLGCQICLTKSMDNMTVRVPETVADARQSIDVGKTS [L37F] | 0.0336 | 0.00175 |
| MAAAGGARLLRAASAVLGGPAGRWLHHAGSRAGSSGGLRNRGPGGSAEASRSLSVSARARSSSEDKITVHFINRDGETLTTKGKVGDSLLDVVVENNLDIDGFGACEGTLACSTCHLIFEDHIYEKLDAITDEENDMLDLAYGLTDRSRLGCQICLTKSMDNMTVRVPETVADARQSIDVGKTS [L37G] | 0.613 | -0.248 |
| MAAAGGARLLRAASAVLGGPAGRWLHHAGSRAGSSGHLRNRGPGGSAEASRSLSVSARARSSSEDKITVHFINRDGETLTTKGKVGDSLLDVVVENNLDIDGFGACEGTLACSTCHLIFEDHIYEKLDAITDEENDMLDLAYGLTDRSRLGCQICLTKSMDNMTVRVPETVADARQSIDVGKTS [L37H] | -0.125 | -0.331 |
| MAAAGGARLLRAASAVLGGPAGRWLHHAGSRAGSSGKLRNRGPGGSAEASRSLSVSARARSSSEDKITVHFINRDGETLTTKGKVGDSLLDVVVENNLDIDGFGACEGTLACSTCHLIFEDHIYEKLDAITDEENDMLDLAYGLTDRSRLGCQICLTKSMDNMTVRVPETVADARQSIDVGKTS [L37K] | 0.0656 | -0.805 |
| MAAAGGARLLRAASAVLGGPAGRWLHHAGSRAGSSGMLRNRGPGGSAEASRSLSVSARARSSSEDKITVHFINRDGETLTTKGKVGDSLLDVVVENNLDIDGFGACEGTLACSTCHLIFEDHIYEKLDAITDEENDMLDLAYGLTDRSRLGCQICLTKSMDNMTVRVPETVADARQSIDVGKTS [L37M] | 0.0458 | 0.0807 |
| MAAAGGARLLRAASAVLGGPAGRWLHHAGSRAGSSGPLRNRGPGGSAEASRSLSVSARARSSSEDKITVHFINRDGETLTTKGKVGDSLLDVVVENNLDIDGFGACEGTLACSTCHLIFEDHIYEKLDAITDEENDMLDLAYGLTDRSRLGCQICLTKSMDNMTVRVPETVADARQSIDVGKTS [L37P] | 0.51 | 1.09 |
| MAAAGGARLLRAASAVLGGPAGRWLHHAGSRAGSSGQLRNRGPGGSAEASRSLSVSARARSSSEDKITVHFINRDGETLTTKGKVGDSLLDVVVENNLDIDGFGACEGTLACSTCHLIFEDHIYEKLDAITDEENDMLDLAYGLTDRSRLGCQICLTKSMDNMTVRVPETVADARQSIDVGKTS [L37Q] | -0.0502 | -0.659 |
| MAAAGGARLLRAASAVLGGPAGRWLHHAGSRAGSSGRLRNRGPGGSAEASRSLSVSARARSSSEDKITVHFINRDGETLTTKGKVGDSLLDVVVENNLDIDGFGACEGTLACSTCHLIFEDHIYEKLDAITDEENDMLDLAYGLTDRSRLGCQICLTKSMDNMTVRVPETVADARQSIDVGKTS [L37R] | -0.0271 | 0.0954 |
| MAAAGGARLLRAASAVLGGPAGRWLHHAGSRAGSSGSLRNRGPGGSAEASRSLSVSARARSSSEDKITVHFINRDGETLTTKGKVGDSLLDVVVENNLDIDGFGACEGTLACSTCHLIFEDHIYEKLDAITDEENDMLDLAYGLTDRSRLGCQICLTKSMDNMTVRVPETVADARQSIDVGKTS [L37S] | 0.557 | -0.131 |
| MAAAGGARLLRAASAVLGGPAGRWLHHAGSRAGSSGTLRNRGPGGSAEASRSLSVSARARSSSEDKITVHFINRDGETLTTKGKVGDSLLDVVVENNLDIDGFGACEGTLACSTCHLIFEDHIYEKLDAITDEENDMLDLAYGLTDRSRLGCQICLTKSMDNMTVRVPETVADARQSIDVGKTS [L37T] | 0.382 | 0.567 |
| MAAAGGARLLRAASAVLGGPAGRWLHHAGSRAGSSGVLRNRGPGGSAEASRSLSVSARARSSSEDKITVHFINRDGETLTTKGKVGDSLLDVVVENNLDIDGFGACEGTLACSTCHLIFEDHIYEKLDAITDEENDMLDLAYGLTDRSRLGCQICLTKSMDNMTVRVPETVADARQSIDVGKTS [L37V] | 0.412 | – |
| MAAAGGARLLRAASAVLGGPAGRWLHHAGSRAGSSGWLRNRGPGGSAEASRSLSVSARARSSSEDKITVHFINRDGETLTTKGKVGDSLLDVVVENNLDIDGFGACEGTLACSTCHLIFEDHIYEKLDAITDEENDMLDLAYGLTDRSRLGCQICLTKSMDNMTVRVPETVADARQSIDVGKTS [L37W] | 0.235 | -0.0987 |
| MAAAGGARLLRAASAVLGGPAGRWLHHAGSRAGSSGYLRNRGPGGSAEASRSLSVSARARSSSEDKITVHFINRDGETLTTKGKVGDSLLDVVVENNLDIDGFGACEGTLACSTCHLIFEDHIYEKLDAITDEENDMLDLAYGLTDRSRLGCQICLTKSMDNMTVRVPETVADARQSIDVGKTS [L37Y] | 0.353 | 0.0859 |
